Test: yeast display, Sf9 membrane polyspecificity reagent, FACS + sequencing; frameworks hold sequencing errors
Outline: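 After 36–48 hours of galactose induction, yeast (Saccharomyces cerevisiae BJ5465) displaying a synthetic nanobody library were stained at 4 °C for 1 hour with 10% biotinylated, detergent-solubilized Sf9 membrane reagent. Streptavidin microbeads enriched the stained cells before FACS sorting into low and high (top ~1%) gates on anti-HA and streptavidin fluorescence. Each clone's polyreactivity label reflects its gate of origin.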

Row | Sequence | polyreactivity (PSR sort gate)
1 | QVQLVESGGGLLQAGGSLRLSCAASGSTLRRYAMGWDRQAPGKERELVAAISGSGDSTYYADSVKGRFTISRDNAKNTVYLQMNSLKPEDTAVYYCNAVYAFNGYDYWGQGTQVTVSS | low polyreactivity
2 | QVQLVESGGGLVQAGGSLRLSCAASGRIFSHNVMGWYRQAPGKERELVAAISGRDGSTYYADSVKGRFTISRDNAKNTVYLQMNSLKPEDTAVYYCATDTSNVEGDYWGQGTQVTVSS | low polyreactivity
3 | QVQLVESGGGLVQAGGSLRLSCAASGFTFSENAMGWYRQAPGKERELVADITNGASTNYADSVKGRFTISRDNEKNTVYLLMNSLKPEDTAVYYCATDSYPGLNPDFDYWGLGTQVTVSS | low polyreactivity
4 | QVQLVESGGGLVQAGGSLRLSCAASGRTFDGYSMGWYRQAPGKEREFVASINGGGSTNYADSVNGRFTISRDNAKNTVYLQMNSLKPEDTAVYYCAAESKGTWLYLYNSPHYYWGQGTQVTVSS | low polyreactivity
5 | QVQLVESGGGLVQAGGSLRLSCAASGFIFGGYAMGWYRQAPGKEREFVAAIRQRGGSTYYADSVKGRFTISRDNAKNTVYLQMNSLKPEDTAVYYCAATVRAVQASVRYGYWGQGTQVTVSS | high polyreactivity
6 | QVQLVESGGGLVHAGGSLRLSCDASGIIFFIYTMGWYRQAPGKERELVAVITRGGRTNYADSVKGRFTISRDNAKNTVYLQMNSLKPEDTAVYYCAAKGSRSYYWGQGTQVNVSS | high polyreactivity
7 | QVQLVESGGGLVQAGGSLRLSCAASGLTFYGNARGWYRQAPGKERELVADISLSGGRTFYADSVKGRFTISRDNAKHTVYLQMNSLKPEDTAVYYCANTYTSGYHRRYDYWGQGTQVTVSS | low polyreactivity
8 | QVQLVESGGGLVQAGGSLRLSCAASGRTFVYYTMGWYRQAPGKERELVAGIRRRGGRTYYADSVKGRFTISRDNAKNTVYLQMNSLKPEDTAVYYCAAQTRYQGYQEYYYWGQGTQVTVSS | high polyreactivity
9 | QVQLVESGGGLVQAGGSLRLSCAASGFTFTYNDMGWYRQAPGKEREFVAAISSTGGSTYYADSVKGRFTISRDNAKNTVYLQMNSLKPEDTAVYYCAAEDSWYWDAWFDYWGQGTQVTVSS | low polyreactivity
10 | QVQLVESGGGLVQAGGSLRLSCAASGSIFGAYDMGWSRQAPGKERELVASITSGDSTNYADSVTGRFTISRDNAKNTVYLQMNSLKPEDTAVYYCAADLAVAVAADYDSWGQGTQVTVSS | low polyreactivity
11 | QVQLVESGGGLVQAGGSLRLSCAASGSIFDPYAMGWYRQAPGKERELVAAISGSGGSTYYADSVKGRFTISRDNAKNTVYLQMNSLKPEDTALYFCAAADAWWGRRYKYYHWGQGPQVTVSS | low polyreactivity
12 | QVQLVESGGGLVQAGGTLRLSCASSGRIFYHYAMGWDRQAPGKERELVAAISTHTGTTYYADSVKGRFTISRDNAKNTVYLQMNSLKPEDTAVYYCAKRSRYGYGKSYDYWGQGTQVTVST | high polyreactivity
13 | QVQLVESGGGIVQAGGSLRLSCAASGLTFYVYAMGWYREAPGKEREFVAAITWSGGSTYYADSVKGRFTISRDNAKNTVYLQMNSLKPEDTAVYYCAAETLWSELYYWGQGTQVTVSS | high polyreactivity
14 | QVQLVESGGGLVQAGGSLRLSCAASGRTLFPNVMGWYRQAPGKERELVAAIRGTGGSTYADSVKGRVTISRDNAKNTVYLQMNSLKPEDTAVYYCAAGYPVTRRTIRFDYWGQGTQVTVSS | high polyreactivity
15 | QVQLVESGGGLVQAGGSLRLSCAASGSTIGANAMGWSRQAPGKERELVAAISLSGGTSYADSVKGRFTISRDNAKNTVYLQMNSLKPEDTAVYYCAAPGRGWFDWYAHYYWGQGTQVTVSS | low polyreactivity
16 | QVQLVESAGGLVQAGGSLRLSCAASGRTFWSYAMGWSRQAPGKERELVAAINSGGSTYYADSVKGRFTISRDNAKITVYLQRNSLKPEDTAVYYCDADTWYGFDWGVGTQVTVSS | high polyreactivity
17 | QVQLVESGVGLVQAGGSLRLSCAASGSIFYNYAMGWYRQAPGKEREFVAAISWSGDTTYYADSVKGRFTISRDNAKNTVYLQMNSLKPEDTAVYYCAAESYIWFWRPYYYWGQGTQVTLSS | low polyreactivity
18 | QVQLVESGGGLVQAGGSLRLSCAASGRTFIYYAMGWYRQAPGKERELVAAITNRGGRTYYADSVKWRFTISRDNAKYTVYLQMNSLKPEDTAVYYCNRVGTYHSYDYWGQGTQVTVSS | high polyreactivity
19 | QVQLVESGGGLVQAGGSLRLSCAASGSTFQSKAMGWYRQAPGKERELVAAINSGTSTYYADSVKGRFTISRDNAKNTVYLQMNSLKPEDTAVYYCAADGIWGEYYYSELGDYDYWGQGTQVTVSS | low polyreactivity
20 | QVQLVDSGGGLVQAGGSLRLSCAASGRTFYAYAMGWYRQAPGKERELVATISSSDASTYYADSVKGRFTISRDNAKKTVYLLMNSLKPEDTAVYYGNADFVRPSWARGRNNGLYYWGQGTQVTVSS | low polyreactivity
21 | QVQLVESGGRLVQAGGSLLLSCAASGRIFDKYAMGWYRQAPGKERELVAAITYIDSGTYYADSVKGRFTISRDNAKNTVYLQMNSLKPEDTAVYYCAARYPSDYDYWGQDTQVTVSS | low polyreactivity
22 | QVQLVESGGGLVQAGGSLLLSCAASGFTFQYYAMGWYRPEPGKERELVASISWSGGSTYYADSVKGRFTISRDNAKNTVYLQMHSLKPEDTAVYYCAATVTYFFSSARFSAYGYWGQGTQVTVSS | high polyreactivity

Row | Sequence | polyreactivity (PSR sort gate)
23 | QVQLVESGGGLVQAGGSLRLSCAASGYIFLANAMGWYRQAPGKVRELVAAITSGGGGTYYADSVKGRFTFSRDNAKNTVYLQMNSLKPEDTAVYYCAADHGRDGSSFEYWGQGTQVTVSS | low polyreactivity
24 | QVQLVESGGGLVQAGGSLRLSCAASGSIFRDNAMGWYRQAPGKERELVASIRSSGGRTYYADSVKGRFTISRDNANNTVYLQMNSLKPEDTAVYYCAADWIYAPWYYQESVEYYYWGQGTQVTVSS | low polyreactivity
25 | QVQLVESGGGLVQAGGSLRLSCAASGSTIRAYGMGWYRQAPGKERELVAAISYSGDSTYYADSVKGRFTISRDNAKNTVYLQMNSLKPEDTAVYYCDADYSYRHYEYDYWGQGTQVTVSS | low polyreactivity
26 | QVQLVETGGGLVQAGGSLRLSSAASGSTFTYNVMGWYRQAPGKERELVAAISRIAGRTYYADSVKGRFTISRDTAKNTVYLQMNSLKPEDTAVYYCAALALKWRYDFWGQGTQVTVSS | high polyreactivity
27 | QVQLVESGGGLVQAGGSLRLSCAASGFTFVWYVMGWYRQAPGKEREFVAAITSTGGNTNYADSVKGRFTISRDNAKNTVYLEMNSLKPEDTAVYYCAKRYGFPPGYYYWGQGTQVTVSS | low polyreactivity
28 | QVQLVESGGGLVQAGGSLRLSCAASGSIFRLYVMGWYRQAPGKERELVAAITLSGGSTYYADSVKGRFTISRDNAENTVYLQMNSLKPEDTAVYYCNRVTLYDITFDYWGQGTQVTVSS | low polyreactivity
29 | QVQLVESGGGLVQAGGSLRLRCAASGRTFDKYAMGWYRQAPGKERELVAAISYDAGRTYYADSVKGRFTISRDNAKNTVYLQMNSLKPEDNAVYFCNAVRFRGFGWGQGTQVTVSS | high polyreactivity
30 | QVQLVESGGGLVQAGGSLRLSCAASGIIFRRYAMGWYRQAPGKERELVAVITSGGSTNYADSVKGRFTISRDNAKNTVYLQMNSLKPEDTAVYYCAAKGWVYWIRSRYDYWGQGTQVTVSS | high polyreactivity
31 | QVQLVESGGGLVQPGGSLRLSCAASGSIFSYNTMGWYRQAPGKERELVAAISGRGGSTNYADSVKGRFTISRDNAKNTVYLQMNSLKPEDTAVYYCAKETWVPYRNGFFPLKGDYWGQGTQVTVSS | low polyreactivity
32 | QVQLVESGGGLVQAGGSLRLSCAASGRIFDYYAMGWYRQAPGKERELVATITSGSRTYYADSVKGRFTISRDNAKNTVYLQMNSLKPEDTAVYYCNTVSFKRLGWRYDYWGQGTQVTVSS | high polyreactivity
33 | QVQLVESGGGLFQAGGSHRLSCAASGSTFTPYAMGWYRQAPGKEREFVARISWTGGSTYYADSVKGRFTISRDNAKNTVYLQMNSLKPEDTAVYYCAARYGYSYYRRDYWGQGTQVTVSS | high polyreactivity
34 | QVQLVESGGGLVQAGGSLRLSCAASGITFRYYAMGWYRQAPGKERELVAVISTSGGSTYYADSVKGRFTISRDNAKNTVYLQMNSLKPEDTAVYYCAARYTYWGLLRYDYWGQGTQVTVSS | high polyreactivity
35 | QVQLVESGGGLVQAGGSLRLSCAASGITFDSNAMGWYRQAPGKERELVAVISSSGGSTNYADSVKGRFTISRDNAKNTVYLQMKSLKPEDTAVYYCAADYRFYYTRWEYSFNYWGQGTQVTVSS | high polyreactivity
36 | QVQLVESGGGLVQAGGSLRLSCAASGRTFYAYAMGWYRQAPGKERELVAAISWRGGDTYYADSVKGRFTISRDNAKNTVELQMNSLKPEDTAVYYCAKDLSRQSGDGEYDYWGQGTQVTVSS | low polyreactivity
37 | QVQLVESGGGLVQAGGSLRLSCAASGNTFAVNAMVWSRQAPGKERELVAAISRTGGRTYYADSVKGRFTISRDNAKNTVYLQMNSLKPEDTAVYYCAAEYYYTSQLAKYHYGYEYWGQGTQVTVSS | high polyreactivity
38 | QVQLVESGGGLVQAGGSLRLSCAASGRTVGVYAMGWYRQAPGKERELVATITSGASTNYADSVKARFTISRDNAKNTVYLQMTSLKPEDTAVYYCNARRVAYASYSHPRVLDDYWGQGTQVTVST | low polyreactivity
39 | QVQLVESGGGLVQAGGSLRLSFAASGQTFRWNAMGWYRQAPGKERELFAAISRGDRTNYADSVKGRFTISRDNAKNTVYLQMNSLNPEDTAVYYCAKTYQTNYYNGTWGVTSYGYWGQGTQVTVSS | high polyreactivity
40 | QVQLVESGGGLVQAGGRLRLSCAASGRTFDRMLMGWYRQAPGKERELVAAITSGGRTNYADSVKGRFTISRDNAKNTVYLQMNSLKPEDTAVYYCAKRASALLRHSYDYWGQGTQVTVSS | low polyreactivity
41 | QVQLVESGGGLVQAGGSLRLSCAASGNIFGAYAMGWYRQAPGKERELVATINWSGTRTYADSVKGRFTISRDNAKNTVYLQMNSLKPEDTAVYYCATKIAGRYRTRYYWGQGTQVTVSS | high polyreactivity
42 | QVQLVESGGGLVQAGGSLRLSCAASGSTFRQYAMGWYRQAPGKERELVAAITWRGDNTYYADSVKGRFTISRDNAKNTVYLQMNSLKPEDTAVYYCAARWSYRLYWGYGYWGQGTQVTLSS | low polyreactivity
43 | QVQLVESGGGLVQAGGSLRLSCAASGIISGDYAMGWYRQAPGKERELVARITSGDSTNYADSVKGRFTISRDNAKNTVYLQMNSLKPEDTAVYYCAAKRYVFQNDYWGQGTQVTVSS | low polyreactivity
